From the supplement of paper PMC7125110
± gives the standard error. Variants at the floor of the assay were thinned out.

B1: glmS ribozyme (parent)
chain: AUAAAAGCGCCAGAACUACAGAAAUGUAGUUGACGAGGAGGAGGUUUAUCGAAUUUUCGGCGGAUGCCUCCAAA

Tests used:
Settings in all cases: with glucosamine-6-phosphate
[1] = variants of: B1; test: self-cleavage kobs at 40 uM GlcN6P; higher = faster cleavage; RNA array
Method in brief: (§1)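 Barcoded ribozyme variants, transcribed in situ by E. coli RNA polymerase on sequenced MiSeq chips, were followed via a hybridised Cy3 probe at 37 °C. Glucosamine-6-phosphate ranged from 40 μM to 10 mM in HEPES/KCl/Mg(OAc)2 buffer. kobs came from decay fits to per-tile medians, and kcat and KM from weighted Michaelis–Menten fits.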

[2] = variants of: B1; test: self-cleavage kobs at 10000 uM GlcN6P; higher = faster cleavage; RNA array
Method in brief: as §1

[3] = variants of: B1; test: self-cleavage kobs at 160 uM GlcN6P; higher = faster cleavage; RNA array
Method in brief: as §1

[4] = variants of: B1; test: self-cleavage kobs at 640 uM GlcN6P; higher = faster cleavage; RNA array
Method in brief: as §1

[5] = variants of: B1; test: self-cleavage kobs at 2500 uM GlcN6P; higher = faster cleavage; RNA array
Method in brief: as §1

Row | Variant | self-cleavage kobs at 40 uM GlcN6P [1] [s⁻¹] | self-cleavage kobs at 10000 uM GlcN6P [2] [s⁻¹] | self-cleavage kobs at 160 uM GlcN6P [3] [s⁻¹] | self-cleavage kobs at 640 uM GlcN6P [4] [s⁻¹] | self-cleavage kobs at 2500 uM GlcN6P [5] [s⁻¹]
1 | C11G G37C G40U G51A U65C | < 1e-05 | < 1e-05 |  |  | 
2 | A12C A42G C70A | < 1e-05 | 2.91e-05 ± 1.2e-05 |  |  | 
3 | C11U G29A G32U C50G | 7.73e-05 ± 3.1e-05 | 7.84e-05 ± 2.3e-05 |  |  | 
4 | C11U A36G | < 1e-05 |  | < 1e-05 | < 1e-05 | < 1e-05
5 | C11U A14U G43U U54A G63A | < 1e-05 |  |  |  | < 1e-05
6 | C11A G35A U55A G60U U65A C68G | 0.00461 ± 0.0018 | 5.33e-05 ± 1.7e-05 |  |  | 
7 | C11G A36C G37U G38U U49A G63C U65A | < 1e-05 | < 1e-05 |  |  | 
8 | C11A G51A | < 1e-05 | < 1e-05 |  | < 1e-05 | 
9 | C11U A15C U46A | < 1e-05 |  | < 1e-05 | < 1e-05 | 
10 | C11U A15C A48U G60A | < 1e-05 | < 1e-05 |  |  | 
11 | C10U U45G G51U A64U | < 1e-05 | < 1e-05 |  |  | 
12 | A12C A36C U54G | < 1e-05 |  |  |  | 
13 | C10U G43U C70A | < 1e-05 |  |  |  | 
14 | C11A G43U | < 1e-05 | < 1e-05 | < 1e-05 | < 1e-05 | 
15 | A12G G32A A33U C70G | < 1e-05 |  | < 1e-05 | < 1e-05 | 
16 | A12U G29A | 0.00084 ± 0.00025 | 0.041 ± 0.012 | 0.000905 ± 0.0002 | 0.00253 ± 0.00054 | 0.00409 ± 0.0011
17 | A12U G29C | 0.00079 ± 0.00011 | 0.0212 ± 0.0041 | 0.000653 ± 0.00013 | 0.00446 ± 0.00073 | 0.00717 ± 0.0026
18 | C11U A36G C58U C67G | 4.33e-05 ± 2.1e-05 |  |  |  | 
19 | C10U G40U U49C C70A | < 1e-05 | < 1e-05 |  |  | 
20 | C10U G62U | < 1e-05 | < 1e-05 | < 1e-05 | < 1e-05 | < 1e-05
21 | C10U G38U G41A | < 1e-05 |  |  |  | 
22 | A12G A33G C34U A48C C71G | < 1e-05 |  |  |  | 
23 | A12U G32C G41U C61A | < 1e-05 |  |  |  | 
24 | A12U A33U U47G U49G U55G C68U | < 1e-05 |  |  |  | 
25 | C11G A48C | < 1e-05 | < 1e-05 |  |  | 

Row | Variant | self-cleavage kobs at 40 uM GlcN6P [1] [s⁻¹] | self-cleavage kobs at 10000 uM GlcN6P [2] [s⁻¹] | self-cleavage kobs at 160 uM GlcN6P [3] [s⁻¹] | self-cleavage kobs at 640 uM GlcN6P [4] [s⁻¹] | self-cleavage kobs at 2500 uM GlcN6P [5] [s⁻¹]
26 | C11G A36G | < 1e-05 | < 1e-05 | < 1e-05 | < 1e-05 | < 1e-05
27 | C11A G40U G41U G60C U65C | < 1e-05 | < 1e-05 |  |  | 
28 | A12C C70U | 0.000475 ± 4e-05 | 0.0163 ± 0.0022 | 0.00111 ± 0.00017 | 0.00328 ± 0.00037 | 0.0217 ± 0.0053
29 | A12U G44U U57A G59A | < 1e-05 | < 1e-05 |  |  | 
30 | A12U C34U G41U G66C | < 1e-05 | < 1e-05 |  |  | < 1e-05
31 | C10U U31G G40U | < 1e-05 |  |  |  | 
32 | A12G G37C | < 1e-05 | < 1e-05 |  | < 1e-05 | 
33 | C11G A14U A39U | < 1e-05 |  |  |  | 
34 | A12U A39U U54C | 0.000713 ± 0.00016 | 0.0366 ± 0.01 |  |  | 
35 | A12C A33C C71G | < 1e-05 | < 1e-05 |  |  | 
36 | C11A G32A A39U | < 1e-05 |  |  | < 1e-05 | 
37 | C11A A48U A52U | < 1e-05 | < 1e-05 |  |  | 
38 | C11A C50A C68G | 5.45e-05 ± 1.8e-05 | 3.73e-05 ± 1.7e-05 | 0.000352 ± 0.0001 | 0.000154 ± 5.6e-05 | 6.2e-05 ± 2.5e-05
39 | C11U A64U | < 1e-05 |  | < 1e-05 | < 1e-05 | 
40 | C11U A64C | < 1e-05 | < 1e-05 |  |  | 
41 | C10U U31C G66U | < 1e-05 | < 1e-05 | < 1e-05 |  | 
42 | C11A A15C C50G | 0.000118 ± 3.3e-05 | 4.96e-05 ± 1.5e-05 | 0.000386 ± 0.00017 | 0.000113 ± 3.6e-05 | 7.75e-05 ± 3.1e-05
43 | C11G U69G | 3.62e-05 ± 1.4e-05 |  | 0.000125 ± 2.3e-05 | 0.000184 ± 3.4e-05 | 8.88e-05 ± 1.6e-05
44 | A12U G40U G41C | < 1e-05 |  |  |  | 
45 | A12C U45A C58G C67G | < 1e-05 |  |  |  | 
46 | C11U A42C U56A C68A | < 1e-05 | < 1e-05 |  |  | 
47 | C11U A48G A53G | < 1e-05 | < 1e-05 |  |  | 
48 | A12U G40A U45C | 6.12e-05 ± 2e-05 | 0.00175 ± 0.0003 |  |  | 
49 | A12U A33C G37C | < 1e-05 | < 1e-05 |  |  | 
50 | C10U C11U A64G U65A | < 1e-05 |  |  |  | 
